The text below walks through data of PMC7610691 (Nature structural & molecular biology, 2020).

Assay [1] concerns the target T1, Ycs4 (S. cerevisiae condensin HEAT-repeat subunit) (S. cerevisiae, UniProt Q06156 1-1176).
T1 sequence: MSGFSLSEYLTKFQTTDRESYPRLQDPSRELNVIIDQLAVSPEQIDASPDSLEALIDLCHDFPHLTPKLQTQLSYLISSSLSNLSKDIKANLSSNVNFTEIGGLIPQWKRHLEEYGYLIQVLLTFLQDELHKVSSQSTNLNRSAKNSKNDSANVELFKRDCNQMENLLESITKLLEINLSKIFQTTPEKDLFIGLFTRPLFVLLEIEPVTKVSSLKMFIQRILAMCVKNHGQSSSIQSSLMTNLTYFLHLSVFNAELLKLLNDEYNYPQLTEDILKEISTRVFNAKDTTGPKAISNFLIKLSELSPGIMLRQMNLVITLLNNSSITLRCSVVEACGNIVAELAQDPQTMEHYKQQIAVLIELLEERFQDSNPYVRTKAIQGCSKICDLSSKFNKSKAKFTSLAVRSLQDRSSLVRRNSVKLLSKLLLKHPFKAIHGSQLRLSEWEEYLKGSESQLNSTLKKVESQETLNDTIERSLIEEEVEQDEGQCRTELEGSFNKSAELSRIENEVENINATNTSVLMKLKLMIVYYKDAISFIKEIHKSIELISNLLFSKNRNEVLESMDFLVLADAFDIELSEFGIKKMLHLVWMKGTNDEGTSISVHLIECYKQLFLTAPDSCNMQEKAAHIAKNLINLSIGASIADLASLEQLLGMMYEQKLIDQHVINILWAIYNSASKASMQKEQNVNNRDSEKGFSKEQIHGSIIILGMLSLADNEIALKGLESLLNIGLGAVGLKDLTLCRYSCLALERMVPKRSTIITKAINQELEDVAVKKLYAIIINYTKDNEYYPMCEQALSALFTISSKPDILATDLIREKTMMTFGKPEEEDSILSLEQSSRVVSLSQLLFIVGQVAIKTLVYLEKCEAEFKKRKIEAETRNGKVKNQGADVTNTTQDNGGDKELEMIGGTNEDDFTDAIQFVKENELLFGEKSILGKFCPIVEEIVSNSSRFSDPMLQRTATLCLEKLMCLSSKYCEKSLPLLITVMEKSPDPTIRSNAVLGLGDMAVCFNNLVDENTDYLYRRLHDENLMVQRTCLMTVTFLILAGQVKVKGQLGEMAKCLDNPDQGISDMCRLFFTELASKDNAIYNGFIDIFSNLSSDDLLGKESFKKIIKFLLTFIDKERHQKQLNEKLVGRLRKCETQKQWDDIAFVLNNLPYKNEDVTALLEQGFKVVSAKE
In words: cryo-EM structure.

In assay [2] the target is T2, Ycg1 (S. cerevisiae condensin HEAT-repeat subunit) (S. cerevisiae, UniProt Q06680 1-1035).
T2 sequence: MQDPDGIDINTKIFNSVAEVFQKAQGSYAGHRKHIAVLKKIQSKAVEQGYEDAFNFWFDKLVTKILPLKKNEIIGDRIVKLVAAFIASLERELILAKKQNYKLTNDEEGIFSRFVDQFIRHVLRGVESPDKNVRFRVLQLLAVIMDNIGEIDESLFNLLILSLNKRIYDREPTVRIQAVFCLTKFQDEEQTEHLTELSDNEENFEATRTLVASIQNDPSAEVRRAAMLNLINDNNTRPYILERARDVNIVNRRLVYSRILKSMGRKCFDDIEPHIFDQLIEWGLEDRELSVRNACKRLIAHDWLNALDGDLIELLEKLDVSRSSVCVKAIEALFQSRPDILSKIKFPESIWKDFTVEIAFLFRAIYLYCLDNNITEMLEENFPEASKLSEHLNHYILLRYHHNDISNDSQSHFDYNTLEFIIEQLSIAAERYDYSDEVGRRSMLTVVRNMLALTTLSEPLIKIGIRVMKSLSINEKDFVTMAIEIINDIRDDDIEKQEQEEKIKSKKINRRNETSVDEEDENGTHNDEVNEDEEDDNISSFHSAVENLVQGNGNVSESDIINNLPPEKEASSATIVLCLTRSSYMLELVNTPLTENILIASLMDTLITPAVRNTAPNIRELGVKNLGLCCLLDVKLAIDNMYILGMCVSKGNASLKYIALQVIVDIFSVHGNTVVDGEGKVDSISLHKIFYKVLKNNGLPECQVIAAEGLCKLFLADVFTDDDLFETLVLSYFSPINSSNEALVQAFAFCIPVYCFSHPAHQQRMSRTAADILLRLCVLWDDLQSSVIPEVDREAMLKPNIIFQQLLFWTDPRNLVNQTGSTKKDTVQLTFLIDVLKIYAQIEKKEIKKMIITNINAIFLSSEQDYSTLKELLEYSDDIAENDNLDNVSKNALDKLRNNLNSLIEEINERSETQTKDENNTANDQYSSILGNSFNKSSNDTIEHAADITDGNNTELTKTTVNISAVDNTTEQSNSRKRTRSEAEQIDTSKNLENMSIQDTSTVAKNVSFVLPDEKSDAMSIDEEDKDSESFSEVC
In words: cryo-EM structure.

B1: Brn1 (S. cerevisiae condensin kleisin subunit) (natural protein)
chain: MTTQLRYENNDDDERVEYNLFTNRSTMMANFEEWIKMATDNKINSRNSWNFALIDYFYDLDVLKDGENNINFQKASATLDGCIKIYSSRVDSVTTETGKLLSGLAQRKTNGASNGDDSNGGNGEGLGGDSDEANIEIDPLTGMPISNDPDVNNTRRRVYNRVLETTLVEFETIKMKELDQELIIDPLFKKALVDFDEGGAKSLLLNTLNIDNTARVIFDASIKDTQNVGQGKLQRKEEELIERDSLVDDENEPSQSLISTRNDSTVNDSVISAPSMEDEILSLGMDFIKFDQIAVCEISGSIEQLRNVVEDINQAKDFIENVNNRFDNFLTEEELQAAVPDNAEDDSDGFDMGMQQELCYPDENHDNTSHDEQDDDNVNSTTGSIFEKDLMAYFDENLNRNWRGREHWKVRNFKKANLVNKESDLLEETRTTIGDTTDKNTTDDKSMDTKKKHKQKKVLEIDFFKTDDSFEDKVFASKGRTKIDMPIKNRKNDTHYLLPDDFHFSTDRITRLFIKPGQKMSLFSHRKHTRGDVSSGLFEKSTVSANHSNNDIPTIADEHFWADNYERKEQEEKEKEQSKEVGDVVGGALDNPFEDDMDGVDFNQAFEGTDDNEEASVKLDLQDDEDHKFPIRENKVTYSRVSKKVDVRRLKKNVWRSINNLIQEHDSRKNREQSSNDSETHTEDESTKELKFSDIIQGISKMYSDDTLKDISTSFCFICLLHLANEHGLQITHTENYNDLIVNYEDLATTQAAS
For B1, the binding result in assay [1] and in assay [2] was “binds” in each case.
